Results: the RNAGym collection of RNA variant scans (doi:10.7554/elife.80360)

B1: HDV Ribozyme (parent)
chain: GGCCGGCAUGGUCCCAGCCUCCUCGCUGGCGCCGGCUGGGCAACAUUCCGAGGGGACCGUCCCCUCGGUAAUGGCGAAUGGGACCCA

Variants of: B1
Assay: self-cleavage, relative activity (ratio to wild type); higher = more cleavage; co-transcriptional

In order of falling self-cleavage:
1. GGCCGGCAUGGUCCCAGGCUCCUCGCUGUCGCCGGCUGGGCAACAUUCCGAGGGGACCGUCCCCUCGGUAAUGGCGAAUGGGACCCA  0.601
2. GGCCGGCAUGGUCCCAGGCUCCUCGCUGGCGCCGGCUGGGCAACAUUCCGAGGGGACCGUACCCUCGGUAAUGGCGAAUGGGACCCA  0.222
3. GGCCGGCAUGGUCCCAGGCUCCUCGCUGGCGCCGGCUGGGCAACAUUCCGAGGGGACCGUGCCCUCGGUAAUGGCGAAUGGGACCCA  0.219
4. GGCCGGCAUGGUCCCAGGCUCCUCGCUGACGCCGGCUGGGCAACAUUCCGAGGGGACCGUCCCCUCGGUAAUGGCGAAUGGGACCCA  0.217
5. GGCCGGCAUGGUCCCAGGCUCCUCGCUGGCGCCGGCUGGGAAACAUUCCGAGGGGACCGUCCCCUCGGUAAUGGCGAAUGGGACCCA  0.196
6. GGCCGGCAUGGUCCCAGGCUCCUCGCUGGCGCCGGCUGGGCAACAUUCCGAGGGGACCGUCCCCUCGGUAAUGGCGAAUGGGCCCCA  0.192
7. GGCCGGCAUGGUCCCAGGCUCCUCGCUGGCGUCGGCUGGGCAACAUUCCGAGGGGACCGUCCCCUCGGUAAUGGCGAAUGGGACCCA  0.172
8. GGCCGGCAUGGUCCCAGGCUCCUCGCUGGCGACGGCUGGGCAACAUUCCGAGGGGACCGUCCCCUCGGUAAUGGCGAAUGGGACCCA  0.166
9. GGCCGGCAUGGUCCCAGGCUCCUCGCUGGCGCCGGCUGGGCAACAUUCCGAGGGGACCGUCCCCUCGGUGAUGGCGAAUGGGACCCA  0.161
10. GGCCGGCAUGGUCCCAGACUCCUCGCUGGCGCCGGCUGGGCAACAUUCCGAGGGGACCGUCCCCUCGGUAAUGGCGAAAGGGACCCA  0.138
11. GGCCGGCAUGGUCCCAGGCUCCUCGCUGGCGCCGGCUGGGCAACAUUCCGAGGGGUCCGUCCCCUCGGUAAUGGCGAAUGGGACCCA  0.138
12. GGCCGGCAUGGUCCCAGGCUCCUCGCUGGCGCCGGCUGGGCUACAUUCCGAGGGGACCGUCCCCUCGGUAAUGGCGAAUGGGACCCA  0.138
13. GGCCGGCAUGGUCCCAGGCUCCUCGCUGGCGCCGGCUGGGCAACAUUCUGAGGGGACCGUCCCCUCGGUAAUGGCGAAUGGGACCCA  0.138
14. GGCCGGCAUGGUCCCAGGCUCCUCGCUGGCGCCGGCUGGGCAACAUUCCGAGGGGACCGUCCCCUCGGUAAUGGCGAAUGGGACCCA  0.131
15. GGCCGGCAUGGUCCCAGACUCCUCGCUGGCGCCGGCUGGGCAACAUUCCGAGGGGACCGUCCCCUCGGUAAUGGCGAACGGGACCCA  0.117
16. GGCCGGCAUGGUCCCAGGCUCCUCGCUGGCGCCGGCUGGGCGACAUUCCGAGGGGACCGUCCCCUCGGUAAUGGCGAAUGGGACCCA  0.115
17. GGCCGGCAUGGUCCCAGGCUCCUCGCUGGCGCCGGCUGGGCAACAUUCCGAGGGGACCGUCACCUCGGUAAUGGCGAAUGGGACCCA  0.113
18. GGCCGGCAUGGUCCCAGGCUCCUCGCUGGCGCCGGCUGGGCAACAUUCCGAGGGGACCGUCCCCUCGGUUAUGGCGAAUGGGACCCA  0.111
19. GGCCGGCAUGGUCCCAGGCUCCUCGCUGGCGCCGGAUGGGCAACAUUCCGAGGGGACCGUCCCCUCGGUAAUGGCGAAUGGGACCCA  0.095
20. GGCCGGCAUGGUCCCAGGCUCCUCGCUGGCGCCGGUUGGGCAACAUUCCGAGGGGACCGUCCCCUCGGUAAUGGCGAAUGGGACCCA  0.0852
21. GGCCGGCAUGGUCCCAGGCUCCUCGCUGGCGCCGGCUGGGCAACAUUCCGAGGGGACCGUCCCCUCGGUAAUGGCGAAUGGGACCGA  0.0831
22. GGCCGGCAUGGUCCCAGGCUCCUCGCUGGCGCCGGCUGGGCAACAUUCCGAGGGGACCGUCCCCUCGGUAAUGGCGAUUGGGACCCA  0.0723
23. GGCCGGCAUGGUCCCAGGCUCCUCGCUGGCGCCGGCUGGGCAACAUUCCGAGGGGACCGUCCCCUCGGUAAUGGCGAAUGGGGCCCA  0.0707
24. GGCCGGCAUGGUCCCAGACUCCUCGCUGGCGCCGGCUGGGCAACAUUCCGAGGGGACCGUCCCCUCGGUAAUGGCGAAGGGGACCCA  0.0639
25. GGCCGGCAUGGUCCCAGGCUCCUCGCUGGCGCCGGCUGGGCAACAUUCCGAGGGGACCGUCCCCUAGGUAAUGGCGAAUGGGACCCA  0.0437
26. GGCCGGCAUGGUCCCAGACUCCUCGCUGGCGCCGGCUGGGCAACAUUCCGAGGGGACCGUCCCCUCGGUAACGGCGAAUGGGACCCA  0.0437
27. GGCCGGCAUGGUCCCAGGCUCCUCGCUGGCGCCGGCUGGGCAACAUUCCGAGGGGACCGUCCUCUCGGUAAUGGCGAAUGGGACCCA  0.0386
28. GGCCGGCAUGGUCCCAGGCUCCUCGCUGGCGCCGGCUGGGCAACAUUCCGAGGGGGCCGUCCCCUCGGUAAUGGCGAAUGGGACCCA  0
29. GGCCGGCAUGGUCCCAGGCUCCUCGCUGGCGCCGGCUGGGCCACAUUCCGAGGGGACCGUCCCCUCGGUAAUGGCGAAUGGGACCCA  0
30. GGCCGGCAUGGUCCCAGGCUCCUCGCUGGCGCCGGCUGGGCAACAUUCCGAGGGGACCGUCCCCUCGGUAAUGGCGUAUGGGACCCA  0
31. GGCCGGCAUGGUCCCAGGCUCCUCGCUGGCGCCGGGUGGGCAACAUUCCGAGGGGACCGUCCCCUCGGUAAUGGCGAAUGGGACCCA  0
32. GGCCGGCAUGGUCCCAGACUCCUCGCUGGCGCCGGCUGGGCAACAUUCCGAGGGGACCGGCCCCUCGGUAAUGGCGAAUGGGACCCA  0
